Reference: paper PMC5058624

Biological target: recombinant LukG monomer (TCH1516) (Staphylococcus aureus strain TCH1516 (USA300 CA-MRSA))
Test: BLI

Chain of recombinant LukG monomer (TCH1516) (Staphylococcus aureus strain TCH1516 (USA300 CA-MRSA)) (P21224 30-338 limits assumed): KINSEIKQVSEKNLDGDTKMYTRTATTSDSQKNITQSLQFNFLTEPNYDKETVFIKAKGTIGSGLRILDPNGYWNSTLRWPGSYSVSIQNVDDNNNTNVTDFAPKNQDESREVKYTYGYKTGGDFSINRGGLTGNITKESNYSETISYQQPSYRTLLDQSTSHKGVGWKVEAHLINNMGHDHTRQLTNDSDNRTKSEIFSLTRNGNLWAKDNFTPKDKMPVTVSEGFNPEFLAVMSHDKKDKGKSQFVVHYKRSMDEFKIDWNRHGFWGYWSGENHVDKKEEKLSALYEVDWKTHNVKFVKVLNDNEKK

Substance “recombinant LukH monomer (TCH1516) (natural protein)” has a stoichiometry N (molar ratio of the 2 monomers) of 1.
